Consider 13 molecules from patent US20250250357A1 (NANJING ZAIMING PHARMACEUTICAL, published 2025).

The chains are these.
T1: monkey MSLN on HEK293T-monkey MSLN recombinant cells (monkey)
T1 construct: Full-length precursor as transfected; processing on the cell is not described; also called HEK293-monkey MSLN
T1 chain: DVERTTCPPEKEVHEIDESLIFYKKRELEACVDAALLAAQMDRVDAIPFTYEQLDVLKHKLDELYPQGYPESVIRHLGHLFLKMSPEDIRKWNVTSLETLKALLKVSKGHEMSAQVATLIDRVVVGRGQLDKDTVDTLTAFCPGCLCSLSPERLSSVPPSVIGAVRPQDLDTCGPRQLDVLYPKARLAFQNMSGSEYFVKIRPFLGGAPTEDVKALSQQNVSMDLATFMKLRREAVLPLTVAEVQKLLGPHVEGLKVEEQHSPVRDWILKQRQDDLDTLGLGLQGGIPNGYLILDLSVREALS

T2: monkey MSLN full-length protein (NCBI: XP_028696439.1) expressed on HEK293T-monkey MSLN cells (monkey)
T2 construct: Whole encoded precursor
T2 chain: T1 chain

B1: F7.44.20-H1 (scFv, not shown: small tags and cut ends)
scFv: EVQLVQSGAEVKKPGASVKVSCKASGYTFTDYNMDWVRQAPGQGLEWMGDINPSTGGTIYNQKFNGRVTMTEDKSTSTVYMELSSLRSEDTAVYYCARRRIGTGYFDVWGQGTTVTVSSGGGGSGGGGSGGGGSEIVLTQSPDFQSVTPKEKVTITCSASSSVISSYLSWYQQKPDQSPKLLIYRTSNLASGVPSRFSGSGSGTDFTLTINSLEAEDAATYYCHQWSSFPYTFGGGTKVEIK
notes: also called S009-F7.44.20 humanized antibody VH1 + VL1
B2: F7.44.20-H6 (scFv, not shown: small tags and cut ends)
scFv: B1 scFv with N65Q, F206Y
notes: also called S009-F7.44.20 humanized antibody VH1a + VL2
B3: F7.44.20-H2 (scFv, not shown: small tags and cut ends)
scFv: B1 scFv with F206Y
notes: also called S009-F7.44.20 humanized antibody VH1 + VL2
B4: S009-F7.66.12 (antibody, human IgG1, kappa, V domains shown)
VH: QIPLQQSGPELVKPGASVRISCKASDYAFSSSWMNWVKQRPEKGLEWIGRIFVESGNTHYNDKFNGKATLTADKSSRTAYIQLSSLTSEDSAVYFCTRENIFYHGHSSWFAYWGQGTLVTVSA
VL: DIVLTQSPASLVVSLGQRATISCRAGESVDDFGISYVHWYQQKPGQPPKLLIYRAANLESGIPARFSGSGSRTDFTLTINPVETDDVAIYYCQQNNKDPFTFGSGTKLEIKR
notes: human-murine chimeric antibody, human IgG1/kappa constant regions
B5: S009-F7.67.12 (antibody, human IgG1, kappa, V domains shown)
VH: QVQLQQPGTELVKPGASVRLSCRASGYSFSSYWMHWVKQRPGQGLEWLGNINPTTGDINYNEKFRNRATLAVDKSSTTAYLQLTSLTSEDSAVYFCVRHDGFLWGQGTTLTVSS
VL: DIQMTQSPASLSASVGETVTITCRASENIYSYLAWYQQKQGKSPQLLVYYAKTLAEGVSSRFSGSGSGTQFSLKINSLQPEDFGTYYCQHQFGTPRTFGGGTKLEIRR
notes: as for B4
B6: S009-F7.53.2 (antibody, human IgG1, kappa, V domains shown)
VH: EVQLQQSGPELVKPGASVKIPCKTSGYTFTDYNMDWVKQSHGKSLEWIGDINPNTDGAIYNQKFQNKATLTVDKSSSTAYMELRSLTSEDTAVYYCTRRKLGRKFFDYWGQGTTLTVSS
VL: QIVLTQSPAIMSASPGEQVTMTCSASSSVGYMNWYQQKPGSSPRLLIYDTSNLASGVPVHFSGSGSGTSYSLTISRMEAAFAATYYCQQWYVYPYTFGGGTKLEIKR
notes: as for B4
B7: S009-F7.44.20 (antibody, human IgG1, kappa, V domains shown)
VH: EVQLQQSGPELVKPGASVKIPCKASGYTFTDYNMDWVKQSHGKSLEWIGDINPSTGGTIYNQKFNGKATLTEDKSASTVYMEFRSLTSDDTAVYYCARRRIGTGYFDVWGTGTTVTVSS
VL: QIVLTQSPALMSASPGEKVTLTCSASSSVISSYLSWYQQKPGSSPKLLIYRTSNLASGVPARFSGSGSGTSYSLTISSMEAEDAASYFCHQWSSFPYTFGGGTKLEIKR
notes: as for B4
B8: S009-F7.61.21 (antibody, human IgG1, kappa, V domains shown)
VH: DVQLQQSGPELVEPGASVRIPCKAAGHTFTDYNVDWVKQSHGQSLEWIGDVNPNTDGAIYNQKFEGKATLTVDTSSSTAYMELRSLTSEDTAVYFCARRRLGQGGFDSWGQGTTLTVSS
VL: B7 VL with I2V, L10I, S24G, V29L, S32K, S35Y, L48W, R51S, F95Y, L105V
notes: as for B4
B9: S009-F7.41.18 (antibody, human IgG1, kappa, V domains shown)
VH: QVQLQQPGTELVKPGASVKLSCKASDYTFTSYWMHWVKQRPGQGLEWIGSINPSNGDTYYNEKFKNKATLTVDKSSSTAYMQLSSLTSDDSAVYYCARGWYFDVWGTGTTVTVSS
VL: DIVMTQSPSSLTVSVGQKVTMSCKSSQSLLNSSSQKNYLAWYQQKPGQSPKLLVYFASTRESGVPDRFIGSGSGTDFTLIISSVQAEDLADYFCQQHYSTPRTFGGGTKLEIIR
notes: as for B4
B10: S009-F7.69.8 (antibody, human IgG1, kappa, V domains shown)
VH: EVHLQQSGPELVKPGASVRIPCKASGYTFTDYNMDWVKQSHGKSLEWIGDINPDNGGTIYTQKFKGKATLTVDKSSSTAYMELRSLTSEDTAVYYCARRLHYYGSSGLDYWGQGTTLTVSS
VL: DIQMTQSPASLSAYVGETVTITCRASGNIHNYLAWYQQKQGKSPQLLVYNAKTLADGVPSRFSGSGSGTQYSLKINSLQPEDFGSYYCQHFWSTVWTFGGGTKLEIKR
notes: as for B4
B11: S009-F7.48.1 (antibody, human IgG1, kappa, V domains shown)
VH: QVQLQQPGTELVKPGASVKLSCKASGYTFTSYWMHWVKQRPGQGLEWIGNINPSNGGTNNNENFKSKATLTVDTSSSTAYMQLSSLTSEDSAVYYCVRNGYHGYWYFDVWGTGTTVTVSS
VL: DIVMTQSQKFMSTSVGDRVSVTCKASQNVGTNVAWYQQQPGQSPKALIYSASYRYSGVPDRFTGSVSGTDFTLTISNVQSEDLAEYFCQQYNSYPLTFGGGTKLEIKR
notes: as for B4
B12: S009-F7.65.13 (antibody, human IgG1, kappa, V domains shown)
VH: EVQLQQSGPELVKPGTSVKILCKASGDTFTAYNMDWVKQRHGQSLEWIGDINPNTDSTIYNQKFEGKAILTVDKSSSTAYMELRSLTSEDTAVYYCARRKLGRGYFDYWGQGTTLTVSS
VL: QIVLTQSPAIMSASPGEKVTMTCSVNLSVRYIYWYQQKPGSSPRLLIHDTSNLASGVPVRFSGSGSGTSYSLTISRMEAEDAATYYCQQWSSFPYTFGGGTKLEIKR
notes: as for B4
B13: S009-F8-9.16 (antibody, human IgG1, kappa, V domains shown)
VH: EVHLQQSGPVLVKPGASVKMSCKASGYTFTDYFMNWVKQSHGKSLEWIGVINPHNGYVNYNQKFQGRATLTVDKSSSTVYMELNSLTSEDSAVYHCARSAESAWFAYWGQRTLVTVSA
VL: DVLMTQTPLSLPVSLGDQVSISCRSSQSIVHVKGNTYLEWYLQKPGQSPELLIYKVSNRFSGVPDRFSGGGSGTDFTLKISRVEPEDLGVYYCFQGSHLPYTFGGGTKLEIKR
notes: as for B4

Usually EC50 stands for the concentration giving half of the maximal effect.

Positions count from the first letter of the chain named.

T6 sequence (Q13421 495-614): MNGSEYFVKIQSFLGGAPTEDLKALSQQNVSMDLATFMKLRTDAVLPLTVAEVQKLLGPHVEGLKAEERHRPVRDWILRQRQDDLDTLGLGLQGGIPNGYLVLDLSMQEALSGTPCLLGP
T8 sequence (Q13421 495-614): as above

One assay deals with T3, human MSLN on OVCAR3 tumor cells (human, UniProt Q13421 296-598).
T3 construct: whole, on cells; also called human MSLN protein
T3 sequence (Q13421 other isoform, or with tags, fused parts or gaps): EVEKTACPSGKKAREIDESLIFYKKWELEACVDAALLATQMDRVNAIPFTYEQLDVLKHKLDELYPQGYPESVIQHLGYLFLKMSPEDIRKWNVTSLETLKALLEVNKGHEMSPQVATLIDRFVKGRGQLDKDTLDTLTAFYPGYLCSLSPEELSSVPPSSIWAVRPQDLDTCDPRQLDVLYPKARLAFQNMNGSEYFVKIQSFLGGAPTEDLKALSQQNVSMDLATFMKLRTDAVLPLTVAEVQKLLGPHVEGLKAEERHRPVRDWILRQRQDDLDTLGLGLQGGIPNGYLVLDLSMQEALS
Nature of the assay: FACS, OVCAR3 cells. (In general: In flow cytometry, cells or beads pass a laser one at a time.)
Regarding B1, the EC50 was 0.4 nM and the Maximum_MFI was found to be 1820 MFI.
B2 displayed an EC50 of 1.6 nM and a Maximum_MFI of 1830 MFI.
The like results for B3 were, in that order, 0.99 nM and 1820 MFI.

The target of the next assay is T4, human MSLN protein endogenously expressed on OVCAR3 tumor cells (human, UniProt Q13421 296-598).
T4 construct: whole, on cells; Endogenous target on OVCAR3 cells; kept apart from the recombinant full-length construct; also called mesothelin
Nature of the assay: FACS on OVCAR3 cells.
T4 sequence (Q13421 other isoform, or with tags, fused parts or gaps): as above
In the case of B4, the response was half-maximal at 0.87 nM (EC50) and the “Maximum mean fluorescence intensity” value was found to be 21900.
On to B5, for which the midpoint of the response, the EC50, lay at 0.37 nM and the “Maximum mean fluorescence intensity” value was found to be 29100.
Take B6: the EC50 turned out to be 1.09 nM and the “Maximum mean fluorescence intensity” value came out at 23600.
As for B7, the midpoint of the response, the EC50, lay at 0.05 nM and the “Maximum mean fluorescence intensity” value came to 25700.
B8: the EC50 came to 1.08 nM and the “Maximum mean fluorescence intensity” value was found to be 23700.
B9: a half-maximal response (EC50) required 0.22 nM and the “Maximum mean fluorescence intensity” value was found to be 25900.
The corresponding values for B10 are 0.36 nM and 16600.
With B11, the EC50 was approximately 4 nM and the “Maximum mean fluorescence intensity” value worked out at 24000.
Take B12: the EC50 worked out at 0.87 nM and the “Maximum mean fluorescence intensity” value was found to be 26500.

A further assay deals with T5, human MSLN protein endogenously expressed on OVCAR3 tumor cells (human, UniProt Q13421 296-598).
T5 construct: whole, on cells; endogenous expression on a tumor cell line; also called human mesothelin
Nature of the assay: FACS on OVCAR3 cells.
T5 sequence (Q13421 other isoform, or with tags, fused parts or gaps): as above
For B13, the EC50 was found to be 0.86 nM and the “Maximum mean fluorescence intensity” value came to 5380.

A further assay concerns the target T6, human MSLN-R3 on HEK293T-hMSLN-R3 recombinant cells (human, UniProt Q13421 487-606).
T6 construct: the C-terminal limit is uncertain; also called human MSLN-R3 membrane protein
In words: FACS, HEK293T-hMSLN-R3 cells.
Regarding B1, the concentration giving a half-maximal response (EC50) was found to be 1.72 nM and the Maximum_MFI stood at 1750 MFI.
Take B2: the 50% effective concentration (EC50) stood at 3.44 nM and the Maximum_MFI is 1540 MFI.
The like results for B3 were, in that order, 1.71 nM and 1690 MFI.

For the next assay, the target named is T7, human MSLN-R3 protein (Met487-Ser606 of NCBI AAH09272.1) expressed on HEK293T-hMSLN-R3 cells (human, UniProt Q13421 487-606).
T7 construct: also called Region3
T7 sequence (Q13421 495-614): as the sequence (Q13421 495-614) above
In words: FACS on HEK293T-hMSLN-R3 cells.
Consider B4, for which the EC50 came to 0.38 nM and the “Maximum mean fluorescence intensity” value is 5900.
As for B5, the EC50 worked out at 0.14 nM and the “Maximum mean fluorescence intensity” value is 6930.
For the molecule B6, the EC50 amounted to 1.3 nM and the “Maximum mean fluorescence intensity” value is 6480.
On to B7, for which the EC50 worked out at 0.04 nM and the “Maximum mean fluorescence intensity” value came out at 7470.
Consider B8, for which it took 0.48 nM to reach a half-maximal effect (EC50) and the “Maximum mean fluorescence intensity” value amounted to 6250.
With B9, the EC50 was determined as 0.35 nM and the “Maximum mean fluorescence intensity” value stood at 7460.
B10: the EC50 is 0.14 nM and the “Maximum mean fluorescence intensity” value turned out to be 6590.
In the case of B11, the EC50 was found to be 1.87 nM and the “Maximum mean fluorescence intensity” value is 5150.
In the case of B12, a half-maximal effect (EC50) was put at 0.91 nM and the “Maximum mean fluorescence intensity” value was 6490.

A further assay addresses T8, human MSLN-R3 protein expressed on HEK293T cells (HEK293T-hMSLN-R3) (human, UniProt Q13421 487-606).
T8 construct: C-terminal limit uncertain
In words: FACS on HEK293T-hMSLN-R3 cells.
As for B13, the midpoint of the response, the EC50, lay at 0.53 nM and the “Maximum mean fluorescence intensity” value is 128000.

The target of a further assay is T1, monkey MSLN on HEK293T-monkey MSLN …. Nature of the assay: FACS, HEK293T-monkey MSLN cells.
On to B1, for which the EC50 is 6.05 nM and the Maximum_MFI was found to be 6550 MFI.
B2: the EC50 amounted to 15 nM and the Maximum_MFI worked out at 6020 MFI.
Consider B3, for which the EC50 came out at 5.5 nM and the Maximum_MFI worked out at 6950 MFI.

Another assay deals with T2, monkey MSLN full-length protein (NCBI: …). In words: FACS on HEK293T-monkey MSLN cells.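 Also: flow cytometry binding of chimeric antibodies to the cells, with a 2 h incubation on ice.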
As for B4, the “Maximum mean fluorescence intensity” value amounted to 60 and the binding result was “no binding”.
For the molecule B5, the concentration giving a half-maximal response (EC50) was determined as 0.36 nM and the “Maximum mean fluorescence intensity” value stood at 59300.
In the case of B6, the EC50 came out at 1.13 nM and the “Maximum mean fluorescence intensity” value worked out at 47400.
B7: the response was half-maximal at 0.04 nM (EC50) and the “Maximum mean fluorescence intensity” value came out at 45600.
B8: the half-maximal effective concentration (EC50) turned out to be 0.75 nM and the “Maximum mean fluorescence intensity” value amounted to 39800.
Turning to B9, the EC50 stood at 0.54 nM and the “Maximum mean fluorescence intensity” value was determined as 64200.
B10: it took 12.5 nM to reach a half-maximal effect (EC50) and the “Maximum mean fluorescence intensity” value came out at 9230.
Turning to B11, the EC50 was determined as 2.88 nM and the “Maximum mean fluorescence intensity” value was determined as 43200.
The like results for B12 were, in that order, 0.87 nM and 50200.
